Test: label from the status in PepcDB records

Sequence	protein production
MATVAECNHSVLDLVTKMATMLVADEMKPKKQTAVLVAKKRSKIYESLLHSETMSSQDKLEMLHQVTSEVAKNPDRMDMLLRFQNLLEGQDKEESEITQDQDEENQSEVVIKRIKAGPLQLIETIEIVEEALHPKAFPDINQMNRALKPLQLQPYSDILTTSNLNINFPPEKLIPKIIPSTVIRMGLSESITRMRNEMEKPMHPPPRLPVLAKKVVAPLEDERPFVAQPGPEKHFVSDKLLTNELKILRNKNLVLNYLDEATLIDHLKKAACGIESLTFPISSADKLELRVRPNTTLPTMLPEVLADFANHFIRAGCAFLRLSSRTKWNNIAEMRLERPLNRAMRETIMDYLSTTRQFLLSLQADSLFQLLNNTSTAIQLLCQLDRMFENEPRLNLNTGITGSFLLSSIWLAIDTCGNKDFLHLLIYFLRCISRNYFIQLQRWIYHGELDESVNEIFISRCLNTSPSFTNQCSKEFFDKSYQVDNEAIPEFLVGCEEEILQCGKYNLVLRAYNAQHPVFDVQYPDIVVCLTEQQLKNMRRNLADKYAIIYKRFGWCSMQSIFEDRMATKRVFANLMVKRTQAHLDAWAQKQRELQIKANAQKKLQNDQLNAEQERIQQNHLEKRRQDIVNELAFQRECERMEDKLLEREKQELQKKVVQLAAVLSSSPDRSTVSDLSFASCIEEPDCLAESSSDKDDANTENSEDEATKQLDKTLNVPLEQPEAEYQADVDVDQPRGKECSLPNVFQYQRSHSDVINSNEHPTTQAEFNRNRQHGLSSDQFQQCHATVHLQESDLLKTAASTSSGLHAEIPQDINANLNCPDTKELTELQRNRKRNEHHDGFFSFNSTEDEHTHRLRSLLNSNTERGRNRLRVMETEFGLGYKNTDIETKATPCLPLEIDKLHVEIPLAVLTPMSTTSDVDFGDPSPRELPEIADTANNNNVSGSIESLSPELPKPVLAIAKPTSLLPKLDFGMKDERETEQDRDKVSTLPEACNPFMARRCLQLSVMAPLNAYYGLLRNEVLRIFQEQRIYEHFRKLRNYFFLVDGQFGATLTNEILGRIRAGVGPRSLSQKGILDTILTNALAACSADETTVSENLTLNCTTIPDTLNFLSVEATSMLKLNCKIDWPLNMVISSETISKYGQIFGYLLKLRHVSFVLDGTYEYLQQMGKLLGPELRTCTHFRHMQMMRHKMSHFMTSFQTHLVAKALLSTWKSFKEELCTADSIEALYKQHVAYLKRVAFLALLNRRSAKVKETIDNILVIILRFCKVIQSQSFIVDQDNYFVHPRFKRLQQEEAEFEKFLQYLIYLGNKAAASGYQEEIGDLICIINFNHYYKVSGNHTGSSMEDKKC	failed
MKGSLIIVGFFVLGALCGVYHLIPYDFTQSKLSFYALCALMFSVGVSVGNDPQTLRNFRSLNPRLIFLPVMTILGTLAGCAVVSLFLS	failed
MSLKDMIDSIEQFAQTQADFPVYDCLGERRTYGQLKRDSDSIAAFIDSLALLAKSPVLVFGAQTYDMLATFVALTKSGHAYIPVDVHSAPERILAIIEIAKPSLIIAIEEFPLTIEGISLVSLSEIESAKLAEMPYERTHSVKGDDNYYIIFTSGTTGQPKGVQISHDNLLSFTNWMIEDAAFDVPKQPQMLAQPPYSFDLSVMYWAPTLALGGTLFALPKELVADFKQLFTTIAQLPVGIWTSTPSFADMAMLSDDFCQAKMPALTHFYFDGEELTVSTARKLFERFPSAKIINAYGPTEATVALSAIEITREMVDNYTRLPIGYPKPDSPTYIIDEDGKELSSGEQGEIIVTGPAVSKGYLNNPEKTAEAFFTFKGQPAYHTGDIGSLTEDNILLYGGRLDFQIKYAGYRIELEDVSQQLNQSPMVASAVAVPRYNKEHKVQNLLAYIVVKDGVKERFDRELELTKAIKASVKDHMMSYMMPSKFLYRDSLPLTPNGKIDIKTLINEVNNREGHHHHHH	not failed
MYEIPWSKPVNINMLDGRCRTVVGPLDAMHCLQSEWPVRDGAYYGCAIRACNAALKRRKRPEDARAAFIAALREAFLTVVPMQEEGHGPRPLE	not failed
MDMNTLLSLSWHLMVPEFIILGAAILLSICDLFFKLNHRYVALGAIASVVLAIVSLITLYSEPTGDILNGSFVLDGFSKGFKTLLLGGAALILCIAMSDDKKNPIEDKGEYYYLFLMALLGAMFMASSVDFITLFVGLELLSLSSYILVGIRKKNLTSNEAAMKYVINGGIGTAITLFGMSYLYGITGSTNIVDMQKVFAGELAGGIQLLLALAFLLLLVGLSFKIATVPFHMWAPDVYEGAATPVTAFLGTISKIAGFLLIIRLFLMVFASVSVQGDTQSLYGRMSIYIAVLASITMIIGNVVALKQYNVKRLFAYSGIAHAGYLLVPLVALSPFTMDSMWFYMLAYMLMNIGAFAIIHGLILQSDKENITIFTGLYKRSPFTAIVMTIFILSLAGIPGTAGFIGKINIFLGALHVEPAHYVLASIMMGTTVISFVYYFRILQQMFFRTGEVEEKIRLPLNIKVVMSLCAISIVILGIMPMIGYNFFYEYFPLMKDFFFLGNVVQ	failed
MSLEKLKLIGDERLDYLLAENLRIIQSPSVFSFSIDAVLLAKFSYLPIRKGKIIDLCSGNGIIPLLLSTRTKAKIVGVEIQERLADMAKRSVAYNQLEDQIEIIEYDLKKITDLIPKERADIVTCNPPYFATPDTSLKNTNEHFRIARHEVMCTLEDTIRVAASLLKQGGKANFVHRPERLLDIIDIMRKYRLEPKRIQFVHPRSDREANTVLVEGIKDGKPGVKYVPPVIVYDELGEYTPVIKEILYGESEGHHHHHH	not failed
MTLVSVVLPVYQGAPWIRGALDCLAAQTHRPLEILVVDDASSDGTPAVVEDWRARHPDLSVRLIVRPENGGPGVARNDALALARGAYVAFLDADDRCVPWRLARQLARLEAEPGLGSVGAWYDMVDADGTPVAARRLSVTAGEMAWAALIHPPFLLSTLMTRRALCRPGIFAPRHQGEDAPAQRRLLWQAPAAMIEEVLVTYRTDPHRPQDPRMGVAMAEDLAPLTGPLSAAEAWALHDALLAFPNRVTPAAIAAVSGLFTLLGVFRGLRPAWMTRPEYNRLFEGYLDLAAPFLAAHGESLLAPPSPQAPRVAPWMGPWEAEWRAGEARSDRPRPKEIFPPVGGDSPSKLSG	failed
MITQRQNDILNLIVELFTQTHEPVGSKALQRTIDSSSATIRNDMAKLEKLGLLEKAHTSSGRMPSPAGFKYFVEHSLRLDSIDEQDIYHVIKAFDFEAFKLEDMLQKASHILSEMTGYTSVILDVEPARQRLTGFDVVQLSNHDALAVMTLDESKPVTVQFAIPRNFLTRDLIAFKAIVEERLLDGSVMDIHYKLRTEIPQIVQKYFVTTDNVLQLFDYVFSELFLETVFVAGKVNSLTYSDLSTYQFLDNEQQVAISLRQSLKEGEMASVQVADSQEAALADVSVLTHKFLIPYRGFGLLSLIGPIDMDYRRSVSLVNIIGKVLAAKLGDYYRYLNSNHYEVH	failed
VLKQGYMMKKGHRRKNWTERWFVLKPNIISYYVSEDLKDKKGDILLDENCCVESLPDKDGKKCLFLVKCFDKTFEISASDKKKKQEWIQAIHSTIHLLKLGS	not failed
MSKNDKPLVSIGIPTYNRAESLKRAINSAVNQTYTNLEIIISDNCSIDETQQLCEELCKLDSRITYIRQAKNFGATNNFSFVLKKATGEYFMWLADDDWISENYIYDCQFFLQNNHQYLLCSGIAKYYLGDDIRMGENICLEENSPIERVKEYFNKVQDNGIFYGLYRKEAVLKLRIPSCFGGDWVFIACILLLGKATTLNTCVIHRVFQEKSTEDYAKEINSKYVLEKSYPYAFICFHFFSEIERTLILQNILTKQQKILLFLDILLTLMRRFGHLYSIEYGWLNIFCIRKKLISLLKIIIRNFRQSCLYFIDSLRTFIYNLKYTPQMYQLYASSKQKNSDLKKLAFFSPVKPIKSGISDYSEELIRFLCKKYQIFVFIDDSYTEKQCPNIENTFYLNHRLFPITSKILGIKKIVYQIGNNYYHNYMFKYINKNHGIVVLHDGIHMSGNVLQQPERHKIVVHSLSASTQVKSKYPNLSVNVISLLMSLPEENLKQDKNSLRHELNIDINTFVFGVFGIISEPKMVYELLLAFCHSFVQNENVAFLMVGYEIADSRVLNFLRANEDDKRLVCKLGVSMEDLYKFIKVTDACFNLRSTSRGETSSSLLRVMSCGIPVIASDIDSFSELPSDVLLKVSQNLSQDELSSILKKIYNEKDKLKEIGKKGKSYINSFHSPSKISDIYSTLIEIE	failed
MDEILTNTATPEVGGVAQLSPSAARTKARIALAVMLVPLFGTLEAIRLWFTGQVHALDFILFAVFYAVQMFGVSMGYHRYLAHRAFKTSRLMSSLMLIAGCMAAQGPILFWVTTHRRHHTYSDQHGDPHSPNLMGQSRWQRAKGLWHAHMPWMLAPDMSSWNFFAPDILRDRRLFFYNQTYLFWVALGVILPGVIGGLVSQSWSGAWSGLIFGGLARIFVANQAAWCVGSICHRYGARPFVTHDQSTNNWIVAFLTFGEGLQNNHHAFPAWYRHGVHWWEPDLSGWTLALMGKLRLVSDLRSPSQAMIDKVRKRQASS	failed
